Values joined by “and” are separate entries in the source; they are usually repeats but may differ in a detail not shown here. Identical values can stand only once. Like-named read-outs stand apart in the source and are kept apart here. Marks after values point to notes of the source that are not given here.
Legend:
[1] = Phase I (FIH) dose-escalation trial, single and multiple doses: pharmacokinetics; parameters: species or system human; settings: in vivo
Procedure: Study population: 80 healthy subjects with elevated LDL cholesterol.
Orticumab was provided as a sterile liquid and contained no preservatives. Each single-use, 10 mL vial was designed to deliver 250 mg of MLDL1278A. The Drug Product was formulated as 25 mg/mL orticumab in 20 mM sodium acetate, 0.15 M sodium chloride, pH 5.5.
Route of Administration: intravenous injection (Subcutaneous injection was also examined).
The exact explanation for these unusual PK characteristics was unknown at that time. The mean terminal half-life was similar after both single and multiple administrations of orticumab and was generally in the range of 2-3 weeks and thus in agreement with other therapeutic monoclonal antibodies.

[2] = in vivo
[3] = tested on: patients with atherosclerosis and evidence of carotid or aortic plaque inflammation; assay: Phase IIa: arterial inflammation by FDG-PET/CT (index vessel MDS-TBR); type: in vivo, human; settings: versus placebo; single (1245 mg IV) and multiple infusion groups
Procedure: The study enrolled 147 participants (83% male; mean age 63.0±9.0 years) with atherosclerosis and evidence of carotid or aortic plaque inflammation, measured by FDG-PET/computed tomography (CT). Because there is poor correlation between serum LDL levels and both serum and plaque oxLDL levels, patients were enrolled with a relatively wide range of serum LDL levels (fasting LDL>60 mg/dL at screening, which includes patients both above and below National Cholesterol Education Program Adult Treatment Panel III treatment goals). 139 patients completed the study.
The study consisted of a 28-day screening period, a 78-day treatment period, and a 90-day follow-up period. […] During the screening period, patient acceptability for the study was assessed on the basis of medical history, concomitant medications, physical examination, and clinical laboratory test results. Once a patient passed this initial screening phase, acceptability for study participation was confirmed on the basis of a TBR>1.8 in the qualifying vessel, as quantified by FDG-PET/CT. […]
The primary outcome variable was change in index vessel MDS-TBR (most diseased segment-target to background ratio) measured by FDG-PET/CT from baseline to week 12. Arterial FDG uptake was assessed as target to-background ratio (TBR). […]

B6.lpr.ApoE−/− mice = assay: Carotid artery mRNA expression; type: in vivo, mouse; settings: 1 mg i.p. weekly x3; vs control IgG
Procedure: Statistics: Clinical comparisons from human individuals were evaluated and statistically tested using SPSS software. For same-individual analyses, paired nonparametric Wilxocon rank test was used. For normally distributed data, Students t-test was used. For not normally distributed data, Mann-Whitney rank test was used. Numerical data is expressed as mean±standard deviation if normally distributed or median±intra-quartile range if not normally distributed. Carotid gene expressions were log transformed and expressed as arbitrary units (A.U) and relative fold change respectively. All data was plotted in GraphPad Prism and significance levels used are *=p<0.05 **=p<0.01, ***=p<0.001.

[4] = Second Phase I (Ph1): single-dose bioavailability after subcutaneous and intravenous administration; settings: for tmax: Median (min-max)
[5] = tested on: monocyte chemoattractant protein 1, MCP-1; assay: In vitro inhibition of oxLDL-mediated cytokine release (MCP-1); type: cell-based
Procedure: The ability of orticumab to shut down macrophage pro-inflammatory activity locally in the plaque became the focus, as it was thought to be an important mechanism underlying its therapeutic activity. Initial hypothesis of using orticumab related to neutralizing oxLDL from the systemic compartment, which required 4 μg/mL=˜28 nM=11 mg of orticumab to neutralize 90% systemic oxLDL. Further in vitro assays provided an insight into the minimum effective concentration of orticumab needed to achieve 50% or 90% inhibition of oxLDL-mediated cytokine release (i.e., inhibition of monocyte chemoattractant protein 1, MCP-1): […]

[6] = Intravenous (Cohort A, Period 1), single dose 360 mg, Mean (SD)
[7] = Subcutaneous (Cohort A, Period 2), single dose 360 mg, Mean (SD)
[8] = Subcutaneous (Cohort B), single dose 360 mg, Mean (SD)
[9] = oxLDL-mediated cytokine release

## orticumab: recombinant human IgG1 against MDA-modified peptide 45 of ApoB100; heavy chain SEQ ID NO: 316, light chain SEQ ID NO: 317
[1]; human
  mean terminal half-life: 2-3 weeks
[1]; human, iv, 1.25 mg/kg
  Cmax: 20600 ng/mL
[1]; human, iv, 5 mg/kg
  Cmax: 105000 ng/mL
[1]; human, sc, 1.25 mg/kg
  Cmax: 2990 ng/mL
[1]; 1.25 mg/kg
  Cmax, max exposure IV vs SC: 6.9 times
  ½-life: 20 days
[1]; iv, 1.25 mg/kg
  C ≥ 1 μg/mL: Day 28
  C ≥ 4 μg/mL: Day 3 (<Day 7)
  C ≥ 12 μg/mL: 11 h
[1]; iv, 5 mg/kg
  C ≥ 1 μg/mL: Day 56
  C ≥ 4 μg/mL: Day 14
  C ≥ 12 μg/mL: Day 3
[1]; iv, 15 mg/kg
  C ≥ 1 μg/mL: Day 70*
  C ≥ 4 μg/mL: Day 42
  C ≥ 12 μg/mL: Day 28
[1]; sc, 1.25 mg/kg
  C ≥ 1 μg/mL: Day 28
  C ≥ 4 μg/mL: Not achieved
  C ≥ 12 μg/mL: Not achieved
  Cmax of SC dose versus threshold: does not reach threshold of 4-12 μg/mL
[2]
  C ≥ 1 μg/mL: Day 57
  C ≥ 4 μg/mL: Day 15
  C ≥ 12 μg/mL: Day 8
[2]; iv, 360 mg
  t1/2: 20.3 (2.91) d
[2]; sc
  C ≥ 1 μg/mL: Day 43
  C ≥ 4 μg/mL: Day 15
[3]
  arterial inflammation (index vessel MDS-TBR), baseline to week 12: did not significantly reduce
B6.lpr.ApoE−/− mice
  mRNA expression of IL-10 or MCP-1 in carotid arteries: no effect
[4]; [6]
  AUC(0-inf): 412 (87.3) μg * d/mL
  AUC(0-last): 380 (76.4) μg * d/mL
  CL: 0.906 (0.168) L/d
  Cmax: 84.3 (16.9) μg/mL
  MRT: 16.9 (3.02) d
  Vss: 15.2 (3.25) L
  Vz: 26.3 (5.34) L
[4]; Intravenous (Cohort A, Period 1), single dose 360 mg
  tmax: 0.04 (0.04-0.04) d
[4]; Ph1 trial, single dosing, 360 mg IV
  Cmax: 84.3 µg/mL
[4]; Ph1 trial, single dosing, 360 mg SC
  Cmax: 9.15 µg/mL
[4]; Ph1 trial, single dosing, 360 mg SC 70-90 days after IV dosing
  Cmax: 15.1 µg/mL
[4]; [7]
  AUC(0-last): 215 (60.0) μg * d/mL
  Cmax: 15.1 (4.50) μg/mL
[4]; Subcutaneous (Cohort A, Period 2), single dose 360 mg, Mean (SD), corrected by subtracting AUCresidual from Period 1
  AUC(0-inf): 236 (69.7) μg * d/mL
[4]; Subcutaneous (Cohort A, Period 2), single dose 360 mg
  tmax: 3.99 (1.96-6.91) d
[4]; [8]
  AUC(0-inf): 194 (45.6) μg * d/mL
  AUC(0-last): 178 (39.6) μg * d/mL
  Cmax: 9.15 (3.86) μg/mL
[4]; Subcutaneous (Cohort B), single dose 360 mg
  tmax: 3.91 (1.00-4.02) d
[4]; both routes of administration
  t½: about 20 days
[4]; in vivo
  increase of SC bioavailability by a prior IV dose: approximately 9%
[4]; single SC dose
  median tmax: 96 h
[4]; single SC dose 360 mg
  Cmax of SC dose versus threshold: falls within range of 4-12 μg/mL
[4]; single SC dose 360 mg, Cohort A, Period 2
  maximum mean serum concentration: 15.1 µg/mL
[4]; single SC dose 360 mg, Cohort B
  maximum mean serum concentration: 9.15 µg/mL
[4]; single SC dose of 360 mg
  absolute bioavailability based on AUC(0-inf): 47%
[4]; single SC dose of 360 mg after at least 70 days washout from an initial IV dose
  bioavailability: 56%
[4]; single dose 360 mg IV
  ½-life: 33.5 days
[4]; single dose 360 mg SC
  ½-life: 24.3 days and 24 days
[4]; single dose at 360 mg (4.34 mg/kg)
  Cmax, max exposure IV vs SC: 9.2 times
[5]; expressed as amount
  IC50 for MCP-1 inhibition: ~4 mg
  IC90 for MCP-1 inhibition: 12.4 to 33 mg
[5]; [9]
  IC50 for MCP-1 inhibition: 1.5 µg/mL
  IC90: 30 to 80 nM
  IC90 for MCP-1 inhibition: 4.5 to 12 µg/mL
